Data on one protein can be found in US20160083712A1 (UNIVERSITY OF LEICESTER, published 2016).

The data set concerns the molecule itself. In words: crystal structure, PISA analysis of assemblies.

B1: CSN51-257 wild type (human CSN5 residues 1-257, GST tag cleaved off) (enzyme)
chain: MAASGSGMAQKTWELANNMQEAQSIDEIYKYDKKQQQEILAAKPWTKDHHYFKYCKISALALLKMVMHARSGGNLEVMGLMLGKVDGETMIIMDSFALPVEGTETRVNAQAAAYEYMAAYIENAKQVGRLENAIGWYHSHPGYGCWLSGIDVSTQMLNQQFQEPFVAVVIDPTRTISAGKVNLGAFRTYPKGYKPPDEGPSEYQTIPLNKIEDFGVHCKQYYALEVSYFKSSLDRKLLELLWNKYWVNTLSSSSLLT
notes: Purified after cleavage by GST-3C protease; Crystallised form (PDB 4F70; SeMet-labelled for the crystal); Monomer-dimer equilibrium in solution; also called WT protein
Take B1: the binding result is “binds”.
